The values that follow come from patent US6713249B2, “Cell matrix plaques of initial bone formation” (Barnes-Jewish Hospital, priority 1998, dated 2004).

This assay relates to αvβ3 integrin plaque-like cell/matrix areas in human preosteoblasts. The assay is described as follows: Immunocytochemical localization of cell surface αvβ3 integrin plaques in non-permeabilized cells. In kind it is cell-based. Conditions: bone marrow stromal cells in osteogenic medium with 40 ng/ml OP-1 for 48 hours, non-strained, no Triton X-100; compare FIG. 1C with FIG. 2C. On the procedure:
Bone marrow stromal cells grown to semi-confluence and then exposed to osteogenic medium containing 10 mM of β-glycerophosphate, 50 μg/ml ascorbic acid and 40 ng/ml of osteogenic protein OP-1(32) also referred to as bone morphogenetic protein-7 (BMP-7), for 48 hours were defined as preosteoblasts. These preosteoblast cultures are characterized by alkaline phosphatase activity of 80,000 nmole pNPP/min./μg protein, osteopontin expression, absence of osteocalcin expression, and mineralization after 14 days in osteogenic media. […]
Immunocytochemical analysis essentially was performed as previously described (34). […] The results were analyzed either on Zeiss Fluorescent Microscope (Axioscope) using a 63× oil immersion lens or on a Zeiss laser confocal microscope using a 63× lens. […]
In order to examine whether mechanical strain has a qualitative and/or quantitative effect on the localization and expression level of integrins, near-confluent human preosteoblasts and osteoprogenitors were strained on Flexcell Strain Apparatus, as described in Methods. […] In the presence of Triton X-100, which leads to cell permeabilization and thus, allows examination of the distribution of intracellular as well as cell surface molecules, the αvβ3 integrin, as detected by an anti-human αvβ3 antibody, was localized along actin fibers and in small, granular structures adjacent to actin fibers (FIGS. 1A, 1B, 2A and 2B). […]

B1: OP-1: osteogenic protein OP-1, also referred to as bone morphogenetic protein-7 (BMP-7), component of the osteogenic medium (protein, UniProt P18075 293-431, looked up)
Bone morphogenetic protein 7: STGSKQRSQNRSKTPKNQEALRMANVAENSSSDQRQACKKHELYVSFRDLGWQDWIIAPEGYAAYYCEGECAFPLNSYMNATNHAIVQTLVHFINPETVPKPCCAPTQLNAISVLYFDDSSNVILKKYRNMVVRACGCH
In the case of B1, the “number of the plaque-like cell/matrix areas of the αvβ3 expression” value is given as “stimulation”.
